Patent US20190300875A1 (University of California, published 2019)

Biological target: T1, Arabidopsis cryptochrome 2 (CRY2) (Arabidopsis, UniProt Q96524 1-612)
T1 construct: also called AT1G04400
Test: yeast β-gal assay, dark or blue light (FIG. 5H)
Method: The H293 cells were transfected with vector expressing CRY2 only (CRY2), or together with vector expression Myc-BIC1 (CRY2+BIC1) and cultured in dark for 24 hours. The cells were cracked and divided into equally 12 tubes, then treated with blue light (40 μmol m⁻² s⁻¹) for the duration indicated. The sample were analyzed by western blot using anti-CRY2 antibody and anti-Myc antibody sequentially. (FIG. 5B) β-Gal assay of yeast cells expressing indicated proteins kept in darkness (D) or irradiated with blue light (B50, 50 μmol m⁻² s⁻¹) for indicated durations. (FIG. 5C) Fluorescence images showing the formation of CRY2-GFP nuclear bodies in the protoplasts of WT, BIC1-OX line or […]. The protoplasts transformed with CRY2-GFP construct were kept in darkness overnight and then irradiated with blue light (20 μmol m⁻² s⁻¹) for the time indicated. […] Each sample contains at least 50 protoplast. Means and SD (n=3) are shown. (FIG. 5E) BiFC analysis of the blue-light-induced formation of CRY2 nuclear bodies in protoplasts of WT, BIC1-OX line or BIC2-OX line. The protoplasts transformed with cYFP-CRY2 and nYFP-CRY2 constructs were kept in darkness overnight and then irradiated with blue light (20 μmol m⁻² s⁻¹) for the time indicated. […] Each sample contains at least 50 protoplast. Means and SD (n=3) are shown. […]

T1 sequence (Q96524 whole entry): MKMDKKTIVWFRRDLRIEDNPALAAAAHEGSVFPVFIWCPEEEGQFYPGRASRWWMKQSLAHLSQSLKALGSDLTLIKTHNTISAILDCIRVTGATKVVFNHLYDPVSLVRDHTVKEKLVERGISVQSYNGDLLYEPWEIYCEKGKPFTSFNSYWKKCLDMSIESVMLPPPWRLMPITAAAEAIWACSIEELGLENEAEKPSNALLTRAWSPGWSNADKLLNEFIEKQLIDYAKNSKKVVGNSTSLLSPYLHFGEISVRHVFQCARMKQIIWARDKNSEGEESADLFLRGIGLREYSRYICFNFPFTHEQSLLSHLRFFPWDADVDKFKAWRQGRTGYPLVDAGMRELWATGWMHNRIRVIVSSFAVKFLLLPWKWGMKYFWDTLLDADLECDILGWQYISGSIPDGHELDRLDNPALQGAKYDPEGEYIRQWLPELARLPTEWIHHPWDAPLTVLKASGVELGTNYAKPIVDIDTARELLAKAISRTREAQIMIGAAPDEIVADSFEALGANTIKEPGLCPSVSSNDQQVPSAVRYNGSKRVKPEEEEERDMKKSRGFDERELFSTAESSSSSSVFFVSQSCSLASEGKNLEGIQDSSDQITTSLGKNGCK

B1: Arabidopsis CIB1 (cryptochrome-interacting basic-helix-loop-helix) protein (other)
chain: MNGAIGGDLLLNFPDMSVLERQRAHLKYLNPTFDSPLAGFFADSSMITGGEMDSYLSTAGLNLPMMYGETTVEGDSRLSISPETTLGTGNFKKRKFDTETKDCNEKKKKMTMNRDDLVEEGEEEKSKITEQNNGSTKSIKKMKHKAKKEENNFSNDSSKVTKELEKTDYIHVRARRGQATDSHSIAERVRREKISERMKFLQDLVPGCDKITGKAGMLDEIINYVQSLQRQIEFLSMKLAIVNPRPDFDMDDIFAKEVASTPMTVVPSPEMVLSGYSHEMVHSGYSSEMVNSGYLHVNPMQQVNTSSDPLSCFNNGEAPSMWDSHVQNLYGNLGV
notes: also called AT4G34530
Q: Does B1 bind?
A: Result: binds
